Test results from patent publication US20230183753A1, “Methods of in Vitro Cell Delivery” (Intellia Therapeutics, Inc., priority 2020, published 2023).
Oligonucleotides are written 5' to 3', each unit as a sugar letter and its base; * is a phosphorothioate linkage, no mark a phosphodiester; rarer units and linkages stand in square brackets, end groups in braces. Plain capitals give the bases only. m = 2'-O-methyl; r = 2'-OH (RNA)

Assays:
B2M, CD3, MHC II = experiment: Flow cytometry of antigen negative T cells (B2M, CD3, MHC II) after BC22n or Cas9 editing, Example 16A; format: cell-based, human
From the text: Cells were subsequently washed, processed on a Cytoflex instrument (Beckman Coulter) and analyzed using the FlowJo software package. T cells were gated based on size, shape, viability, and antigen expression.

[1] = test system: B2M, TRAC, TRBC1/2, CIITA; experiment: NGS editing profile of T cells with BC22n or Cas9 mRNA, single or four guides, LNP titration, Example 16A; format: cell-based, human; details: LNP;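 also: activated T cells exposed to LNPs 72 h after activation, kept at 37 °C, harvested on day 10 post activation, editing measured by NGS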
Method: Cells were expanded in T cell basal media for 72 hours prior to LNP transfection.
LNPs were mixed to fixed total mRNA weight ratios of 6:3:2 for editor mRNA, guide RNA, and UGI mRNA respectively as described in Table 12. […] LNP mixtures were incubated for 5 minutes at 37° C. in T cell basal media substituting 6% cynomolgus monkey serum (Bioreclamation IVT, Cat. CYN220760) for fetal bovine serum.
T cells were incubated at 37° C. with 5% CO2 for the duration of the experiment.
In total, T cells were exposed to 6 different LNPs simultaneously (editor mRNA, UGI mRNA, 4 guides).

[2] = multiple guide delivery (four guides simultaneously), locus of the guide assayed, editor BC22n, total RNA 8.6 ng
[3] = multiple guide delivery (four guides simultaneously), locus of the guide assayed, editor BC22n, total RNA 17.2 ng
[4] = multiple guide delivery (four guides simultaneously), locus of the guide assayed, editor BC22n, total RNA 34.4 ng
[5] = multiple guide delivery (four guides simultaneously), locus of the guide assayed, editor BC22n, total RNA 68.8 ng
[6] = multiple guide delivery (four guides simultaneously), locus of the guide assayed, editor BC22n, total RNA 137.5 ng
[7] = multiple guide delivery (four guides simultaneously), locus of the guide assayed, editor BC22n, total RNA 275.0 ng
[8] = multiple guide delivery (four guides simultaneously), locus of the guide assayed, editor BC22n, total RNA 550.0 ng
[9] = multiple guide delivery (four guides simultaneously), locus of the guide assayed, editor Cas9, total RNA 8.6 ng
[10] = multiple guide delivery (four guides simultaneously), locus of the guide assayed, editor Cas9, total RNA 17.2 ng
[11] = multiple guide delivery (four guides simultaneously), locus of the guide assayed, editor Cas9, total RNA 34.4 ng
[12] = multiple guide delivery (four guides simultaneously), locus of the guide assayed, editor Cas9, total RNA 68.8 ng
[13] = multiple guide delivery (four guides simultaneously), locus of the guide assayed, editor Cas9, total RNA 137.5 ng
[14] = multiple guide delivery (four guides simultaneously), locus of the guide assayed, editor Cas9, total RNA 275.0 ng
[15] = multiple guide delivery (four guides simultaneously), locus of the guide assayed, editor Cas9, total RNA 550.0 ng
[16] = single guide delivery, editor BC22n, total RNA 8.6 ng
[17] = single guide delivery, editor BC22n, total RNA 17.2 ng
[18] = single guide delivery, editor BC22n, total RNA 34.4 ng
[19] = single guide delivery, editor BC22n, total RNA 68.8 ng
[20] = single guide delivery, editor BC22n, total RNA 137.5 ng
[21] = single guide delivery, editor BC22n, total RNA 275.0 ng
[22] = single guide delivery, editor BC22n, total RNA 550.0 ng
[23] = single guide delivery, editor Cas9, total RNA 8.6 ng
[24] = single guide delivery, editor Cas9, total RNA 17.2 ng
[25] = single guide delivery, editor Cas9, total RNA 34.4 ng
[26] = single guide delivery, editor Cas9, total RNA 68.8 ng
[27] = single guide delivery, editor Cas9, total RNA 137.5 ng
[28] = single guide delivery, editor Cas9, total RNA 275.0 ng
[29] = single guide delivery, editor Cas9, total RNA 550.0 ng

B1: G015995: guide targeting B2M (SEQ ID NO: 711) (nucleic acid)
guide: mU*mU*mA*rCrCrCrCrArCrUrUrArArCrUrArUrCrUrUrGrUrUrUrUrArGrAmGmCmUmAmGmAmAmAmUmAmGmCrArArGrUrUrArArArArUrArArGrGrCrUrArGrUrCrCrGrUrUrArUrCrAmAmCmUmUmGmAmAmAmAmAmGmUmGmGmCmAmCmCmGmAmGmUmCmGmGmUmGmCmU*mU*mU*mU
For B1, the “percent cells negative for antigen, B2M neg, Mean %” value (“percent cells negative … Mean %” below) (B2M, CD3, MHC II; editor BC22n, total RNA 8.6 ng) was 44.0%, the “percent cells negative … Mean %” value (B2M, CD3, MHC II; editor BC22n, total RNA 17.2 ng) was 60.8% and the “percent cells negative … Mean %” value (B2M, CD3, MHC II; editor BC22n, total RNA 34.4 ng) was 75.7%. The “percent cells negative … Mean %” value (B2M, CD3, MHC II; editor BC22n, total RNA 68.8 ng) was 83.9%, the “percent cells negative … Mean %” value (B2M, CD3, MHC II; editor BC22n, total RNA 137.5 ng) was 91.2% and the “percent cells negative … Mean %” value (B2M, CD3, MHC II; editor BC22n, total RNA 275.0 ng) was 94.4%. For the same molecule, the “percent cells negative … Mean %” value (B2M, CD3, MHC II; editor BC22n, total RNA 550.0 ng) was 95.7%, the “percent cells negative … Mean %” value (B2M, CD3, MHC II; editor Cas9, total RNA 8.6 ng) was 13.9% and the “percent cells negative … Mean %” value (B2M, CD3, MHC II; editor Cas9, total RNA 17.2 ng) was 30.7%. For the same molecule, the “percent cells negative … Mean %” value (B2M, CD3, MHC II; editor Cas9, total RNA 34.4 ng) was 53.4%, the “percent cells negative … Mean %” value (B2M, CD3, MHC II; editor Cas9, total RNA 68.8 ng) was 68.7% and the “percent cells negative … Mean %” value (B2M, CD3, MHC II; editor Cas9, total RNA 137.5 ng) was 82.1%. The “percent cells negative … Mean %” value (B2M, CD3, MHC II; editor Cas9, total RNA 275.0 ng) was 89.3%, the “percent cells negative … Mean %” value (B2M, CD3, MHC II; editor Cas9, total RNA 550.0 ng) was 91.3% and the C-to-A/G % mean [1, 2] was 3.8%. It also gave a C-to-T % mean [1, 2] of 27.3%, an Indel % mean [1, 2] of 2.6% and a C-to-A/G % mean [1, 3] of 4.1%. It also gave a C-to-T % mean [1, 3] of 47.2%, an Indel % mean [1, 3] of 3.0% and a C-to-A/G % mean [1, 4] of 3.9%. It also gave a C-to-T % mean [1, 4] of 61.2%, an Indel % mean [1, 4] of 2.6% and a C-to-A/G % mean [1, 5] of 2.9%. The C-to-T % mean [1, 5] was 81.4%, the Indel % mean [1, 5] was 1.4% and the C-to-A/G % mean [1, 6] was 2.6%. The C-to-T % mean [1, 6] was 90.0%, the Indel % mean [1, 6] was 1.3% and the C-to-A/G % mean [1, 7] was 2.2%. It also gave a C-to-T % mean [1, 7] of 94.7%, an Indel % mean [1, 7] of 0.8% and a C-to-A/G % mean [1, 8] of 2.9%. The C-to-T % mean [1, 8] was 95.9%, the Indel % mean [1, 8] was 0.4% and the C-to-A/G % mean [1, 9] was 1.4%. For the same molecule, the C-to-T % mean [1, 9] was 0.3%, the Indel % mean [1, 9] was 5.0% and the C-to-A/G % mean [1, 10] was 1.3%. For the same molecule, the C-to-T % mean [1, 10] was 0.3%, the Indel % mean [1, 10] was 10.5% and the C-to-A/G % mean [1, 11] was 1.1%. It also gave a C-to-T % mean [1, 11] of 0.3%, an Indel % mean [1, 11] of 19.3% and a C-to-A/G % mean [1, 12] of 0.9%. The C-to-T % mean [1, 12] was 0.3%, the Indel % mean [1, 12] was 34.4% and the C-to-A/G % mean [1, 13] was 0.7%. The C-to-T % mean [1, 13] was 0.2%, the Indel % mean [1, 13] was 51.1% and the C-to-A/G % mean [1, 14] was 0.5%. For the same molecule, the C-to-T % mean [1, 14] was 0.2%, the Indel % mean [1, 14] was 68.0% and the C-to-A/G % mean [1, 15] was 0.4%. It also gave a C-to-T % mean [1, 15] of 0.3%, an Indel % mean [1, 15] of 76.7% and a C-to-A/G % mean [1, 16] of 7.7%. For the same molecule, the C-to-T % mean [1, 16] was 49.5%, the Indel % mean [1, 16] was 6.0% and the C-to-A/G % mean [1, 17] was 6.7%. The C-to-T % mean [1, 17] was 68.5%, the Indel % mean [1, 17] was 4.3% and the C-to-A/G % mean [1, 18] was 5.7%. The C-to-T % mean [1, 18] was 79.0%, the Indel % mean [1, 18] was 3.8% and the C-to-A/G % mean [1, 19] was 4.6%. For the same molecule, the C-to-T % mean [1, 19] was 88.2%, the Indel % mean [1, 19] was 2.5% and the C-to-A/G % mean [1, 20] was 4.1%. The C-to-T % mean [1, 20] was 90.6%, the Indel % mean [1, 20] was 2.2% and the C-to-A/G % mean [1, 21] was 3.7%. It also gave a C-to-T % mean [1, 21] of 92.6%, an Indel % mean [1, 21] of 2.2% and a C-to-A/G % mean [1, 22] of 2.8%. For the same molecule, the C-to-T % mean [1, 22] was 95.2%, the Indel % mean [1, 22] was 1.6% and the C-to-A/G % mean [1, 23] was 1.2%. The C-to-T % mean [1, 23] was 0.3%, the Indel % mean [1, 23] was 23.7% and the C-to-A/G % mean [1, 24] was 0.9%. For the same molecule, the C-to-T % mean [1, 24] was 0.3%, the Indel % mean [1, 24] was 41.1% and the C-to-A/G % mean [1, 25] was 0.6%. It also gave a C-to-T % mean [1, 25] of 0.3%, an Indel % mean [1, 25] of 59.4% and a C-to-A/G % mean [1, 26] of 0.4%. It also gave a C-to-T % mean [1, 26] of 0.2%, an Indel % mean [1, 26] of 76.8% and a C-to-A/G % mean [1, 27] of 0.2%. The C-to-T % mean [1, 27] was 0.1%, the Indel % mean [1, 27] was 88.2% and the C-to-A/G % mean [1, 28] was 0.1%. It also gave a C-to-T % mean [1, 28] of 0.1%, an Indel % mean [1, 28] of 95.1% and a C-to-A/G % mean [1, 29] of 0.1%. For the same molecule, the C-to-T % mean [1, 29] was 0.1% and the Indel % mean [1, 29] was 97.5%.
